Measured values published in patent US8129349B2, “Treatment of disease by inducing cell apoptosis” (The Regents of the University of California, priority 2000, dated 2012).

Experiments:
[1] = target: T1, caspase 8 (Homo sapiens, UniProt Q14790); test: In vitro self-activation of recombinant caspase 8; format: biochemical; conditions: peptides 200 μM, 2 h, procaspase 8 (0.2 μg), colorimetric substrate
T1 construct: 21 amino acid linker (vector-derived) (N); purchased Alexis Biochemicals 201-041-C005
Method: FIG. 5 provides results showing the direct association of C/EBPβ-Glu^217 with procaspases 1 and 8. […] Enzyme activity was measured in the absence (control) or presence of C/EBPβ peptides (200 μM) for 2 h, using a procaspases 1 (1U) (not shown) and 8 (0.2 μg) activity assay. Values are presented as the mean±one half the range of duplicates. Panel C provides results for cells cultured on a collagen type I matrix and incubated with the indicated cell permeant, purified synthetic N-acetyl, C-aldehyde C/EBPβ tetra-peptides (10 μM) or with recombinant C/EBPβ-HA peptides as indicated, together with the Chariot reagent (Active Motif) for 4 h. Control cells were incubated without peptides (P<0.05 for all peptides containing Ala^217).
FIG. 7 provides data showing that phosphorylation of rat C/EBPβ on Ser^105 prevents stellate cell apoptosis. Panel A provides results for mouse stellate cells transfected as described herein (See, FIG. 2), with mutant p90RSK or treated with lactacystin (10 μM) (closed bars), and co-transfected with CMV-rC/EBPβ-Asp^105 (1 μg each) (open bars) as indicated. Annexin-V-PE binding was determined as described for FIG. 2 (P<0.05 for rC/EBPβ-Asp^105). Panel B provides results of an annexin-V-PE assay for stellate cells from C/EBPβ^+/+ (closed circles) and rC/EBPβ-Asp^105 transgenic (open circles) mice treated with lactacystin (0-30 μM). The annexin-V-PE assay was performed 6 hours after treatment began (P<0.05 for rC/EBPβ-Asp^105 transgenic mice for 5-25 μM lactacystin). Panel C provides results for rC/EBPβ-HA constructs (0.3 μg) transfected into rat stellate cells. The expressed peptides were immunoprecipitated with anti-HA antibodies. Using a specific antibody, rCEBPβ-PSer^105 was detected only in cells that expressed wild-type rC/EBPβ. […] Reciprocal immunoprecipitations confirmed these associations. […] Enzyme activity was measured using a colorimetric substrate as described in the Examples. […]
Purified recombinant C/EBPβ peptides, expressed as known in the art (See, Descombes et al., supra; and Buck et al. (1994), supra), and purified synthetic N-acetyl, C-aldehyde tetrapeptides (200 μM) (American Peptide Company) were assayed for their ability to inhibit the activity of purified human recombinant caspases 1 (catalogue # 201-056) and 8 (catalogue # 201-041-C005) (Alexis Biochemicals). […] Caspase activity was determined by the release of the p-nitroaniline colorimetric (Alexis Biochemicals) substrate for caspase 1 (catalogue # 260-026) or 8 (catalogue # 260-045) within the linear part of the kinetic assay (Thornberry et al. (1997), supra; Stennicke and Salvesen, supra). […]

[2] = tested on: C/EBPβ-Ala^217 stellate cells; test: Apoptosis of stellate cells from C/EBPβ-Ala^217 transgenic mice, Hoechst 33342 nuclear staining; format: cell-based, mouse; conditions: collagen type I; IETD or transfection 1 μg
Method: FIG. 2 provides results showing increased apoptosis in hepatic stellate cells from C/EBPβ^−/− and C/EBPβ-Ala^217 transgenic mice. […] Six hours after cultivation, an annexin-V-PE binding assay was performed (P<0.05 for C/EBPβ^−/− and C/EBPβ-Ala^217). […] Apoptotic cells are indicated with arrowheads.
Fluorescent labels were observed using a triple-channel fluorescence microscope. The fluorochromes utilized were FITC and Texas red (Molecular Probes). The number of annexin V (+) cells was determined by in vivo microscopy as known in the art (See, Rudel and Bokoch, supra) among all cells or those expressing the GFP indicator protein either co-transfected with C/EBPβ proteins, or alone. These values are reported herein as a percentage of annexin V (+) for cells expressing the transfected DNA. At least 1000 cells were analyzed per experimental point, including at least 100 cells expressing the transfected DNA (Buck and Chojkier, EMBO J., 15:1753-1765 (1996); Buck et al., (1994), supra; and Buck et al., (1999), supra). […] Nuclear morphology was analyzed by staining cells with Hoechst 33342 (Molecular Probes). […]

T1 sequence (Q14790 217-479): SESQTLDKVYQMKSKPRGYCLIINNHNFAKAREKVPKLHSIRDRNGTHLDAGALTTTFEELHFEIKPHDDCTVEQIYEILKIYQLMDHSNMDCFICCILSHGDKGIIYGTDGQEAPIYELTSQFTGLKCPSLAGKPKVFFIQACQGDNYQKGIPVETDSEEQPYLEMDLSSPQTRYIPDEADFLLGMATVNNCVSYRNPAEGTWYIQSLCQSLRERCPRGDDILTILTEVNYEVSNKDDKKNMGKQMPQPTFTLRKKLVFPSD

B1: C/EBPβ-Glu^217: modified murine C/EBPβ with mutation of Thr^217 to glutamic acid (SEQ ID NO:4), phosphorylation mimic (protein, listed as Mus musculus)
chain: MHRLLAWDAACLPPPPAAFRPMEVANFYYEPDCLAYGAKAARAAPRAPAAEPAIGEHERAIDFSPYLEPLAPAADFAAPAPAHHDFLSDLFADDYGAKPSKKPADYGYVSLGRAGAKAAPPACFPPPPPAALKAEPGFEPADCKRADDAPAMAAGFPFALRAYLGYQATPSGSSGSLSTSSSSSPPGTPSPADAKAAPAACFAGPPAAPAKAKAKKZVDKLSDEYKMRRERNNIAVRKSRDKAKMRNLETQHKVLELTAENERLQKKVEQLSRELSTLRNLFKQLPEPLLASAGHC
For B1, the “Inhibition of in vitro self-activation of caspase 8” value [1] was “inhibited the in vitro self-activation” and the “Block of apoptosis of C/EBPβ-Ala^217 stellate cells” value [2] was “blocked”.
